Measurements: article PMC8809517, “Cofactor-independent RNA editing by a synthetic S-type PPR protein”

T1: GFP-9S library array, motif 4 ND N98S;D124K (synthetic construct, N98S;D124K)
T1 chain: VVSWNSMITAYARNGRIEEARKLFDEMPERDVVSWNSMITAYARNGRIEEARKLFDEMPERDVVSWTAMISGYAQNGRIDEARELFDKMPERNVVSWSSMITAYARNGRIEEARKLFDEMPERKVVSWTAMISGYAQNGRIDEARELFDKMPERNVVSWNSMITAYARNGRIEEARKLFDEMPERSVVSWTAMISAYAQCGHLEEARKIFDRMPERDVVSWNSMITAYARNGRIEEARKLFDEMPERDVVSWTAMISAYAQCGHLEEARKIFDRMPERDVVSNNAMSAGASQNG

T2: GFP-9S library array, motif 4 ND N98F;D124R (synthetic construct, N98F;D124R)
T2 chain: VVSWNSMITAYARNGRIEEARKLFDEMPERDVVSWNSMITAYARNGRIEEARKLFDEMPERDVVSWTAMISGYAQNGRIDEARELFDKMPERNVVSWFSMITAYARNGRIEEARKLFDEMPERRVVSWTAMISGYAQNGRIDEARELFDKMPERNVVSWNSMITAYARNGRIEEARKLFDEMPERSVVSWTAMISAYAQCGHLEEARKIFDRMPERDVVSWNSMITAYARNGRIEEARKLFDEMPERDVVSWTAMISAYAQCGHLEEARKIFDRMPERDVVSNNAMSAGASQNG

T3: GFP-9S library array, motif 4 ND N98H;D124F (synthetic construct, N98H;D124F)
T3 chain: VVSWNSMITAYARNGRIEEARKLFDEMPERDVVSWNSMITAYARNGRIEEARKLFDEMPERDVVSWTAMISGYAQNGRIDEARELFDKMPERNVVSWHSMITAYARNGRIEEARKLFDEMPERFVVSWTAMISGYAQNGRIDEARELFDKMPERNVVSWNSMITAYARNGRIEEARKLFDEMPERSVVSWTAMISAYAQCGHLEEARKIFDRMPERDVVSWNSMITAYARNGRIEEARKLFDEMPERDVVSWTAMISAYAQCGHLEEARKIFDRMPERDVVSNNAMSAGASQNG

T4: GFP-9S library array, motif 4 ND N98L;D124L (synthetic construct, N98L;D124L)
T4 chain: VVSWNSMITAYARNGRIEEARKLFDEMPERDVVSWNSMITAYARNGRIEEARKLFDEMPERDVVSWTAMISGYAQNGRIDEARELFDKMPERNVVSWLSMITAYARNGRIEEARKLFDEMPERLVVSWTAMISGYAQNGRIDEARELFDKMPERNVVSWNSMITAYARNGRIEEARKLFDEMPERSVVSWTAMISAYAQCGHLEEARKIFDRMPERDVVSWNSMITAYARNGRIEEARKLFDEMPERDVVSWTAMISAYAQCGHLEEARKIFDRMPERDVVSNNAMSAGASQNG

T5: GFP-9S library array, motif 4 ND N98H;D124T (synthetic construct, N98H;D124T)
T5 chain: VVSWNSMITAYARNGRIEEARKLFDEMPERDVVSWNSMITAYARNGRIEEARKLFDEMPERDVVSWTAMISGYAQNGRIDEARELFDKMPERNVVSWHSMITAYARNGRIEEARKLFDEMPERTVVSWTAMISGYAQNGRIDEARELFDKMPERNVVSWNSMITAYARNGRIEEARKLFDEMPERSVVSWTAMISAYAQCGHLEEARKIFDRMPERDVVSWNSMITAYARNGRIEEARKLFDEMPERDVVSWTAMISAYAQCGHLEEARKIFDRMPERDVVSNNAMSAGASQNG


What was measured:
Experiment in all cases: high-throughput RNA pulldown from lysate on Ni-NTA beads; HRP: 50 mM Tris pH 8, 150 mM NaCl, 1 mM beta-mercaptoethanol, 50 ug/ml BSA, 3 ug/ml yeast RNA, 0.5% heparin; ITC and FP: Tris pH 8, 200 mM KCl, 5% glycerol; MST: 50 mM Tris pH 8, 200 mM NaCl, 1 mM DTT, BSA, heparin, 0.05% Tween 20
Details in all cases: tags: N-terminal His-eGFP
[1] = biological target: T1, GFP-9S library array, motif 4 ND …
[2] = biological target: T2, GFP-9S library array, motif 4 ND …
[3] = biological target: T3, GFP-9S library array, motif 4 ND …
[4] = biological target: T4, GFP-9S library array, motif 4 ND …
[5] = biological target: T5, GFP-9S library array, motif 4 ND …

Binder | Kd ([1]; label: 5' Cy5) [nM] | Kd ([2]; label: 5' Cy5) [nM] | Kd ([3]; label: 5' Cy5) [nM] | Kd ([4]; label: 5' Cy5) [nM] | Kd ([5]; label: 5' Cy5) [nM] | Kd ([1]; label: 5' IRDye 800CW) [nM] | Kd ([2]; label: 5' IRDye 800CW) [nM] | Kd ([3]; label: 5' IRDye 800CW) [nM] | Kd ([4]; label: 5' IRDye 800CW) [nM] | Kd ([5]; label: 5' IRDye 800CW) [nM]
AUUAGACGUGA (ssRNA) [Cy5-rpoA-G] | 104 | 107 | 134 | 76.1 | 75 |  |  |  |  | 
AUUACACGUGA (ssRNA) [Cy5-rpoA] | 86.7 | 117 | 140 | 74.9 | 50.9 |  |  |  |  | 
AUUAUACGUGA (ssRNA) [IR-rpoA-U] |  |  |  |  |  | 105 | 176 | 204 | 158 | 24.9
AUUAAACGUGA (ssRNA) [IR-rpoA-A] |  |  |  |  |  | 134 | 85.1 | 320 | 157 | 103
